In the domain aggregation screens of Martell et al. (2025):

assay: soluble fraction after stress (log2 fold change); higher = more stays soluble; pooled small domains, quantitative proteomics; conditions: stress: 75 degC
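Further: 20 min heating vs room temperature control held 20 min.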

First: HMQPDDELVRLLLIKIFNDKQLKVNPAVINYLLRRIDRSFESINNFVKKIDEFSLEKGRKITVNLVSGFF
Second: HMQPFTELTPREREILGHLAEGQSNKVIARHLDISDGTVKLHVKAILRKLGVHSRVEAAVMAVEHGIR
The “soluble fraction (log2)” value of the first is higher: -0.777 for the first, -2.11 for the second.

Going from “HMQPIEIQDRITKAFERSAALEAKNINVEVDGHTVKLTGTVHSLTEKEEARKAAFFAPGVTKVENHLIVDY” to “HMQPMIQIHTLANHAPVALHIKRNTQRNIIIRARDASSLNLSIPKWFSPAQLQNWLRDNEATLIRILQQAP”, the “soluble fraction (log2)” value falls from 0.0424 to -3.6.

Compared with “HMQPPKIISTVEPYREVVREYLKQGVEMTAIWQRLRENYQYTGSYSSVRRFVAQLEPRQPEA”, “HMQPQLFRVIADDGLNIRSGPGPEYPPVAPMLRKGTQVELLQAGDRWSKVEVVGSTDVEGWVNQRYLQAV” is higher in “soluble fraction (log2)” value: -1.9 for the first, -0.169 for the second.

Going from “HMQPSQTLSATVEFPDRLDRFLALAFPEVSRARFQRLIAEGHVSVEGVPATEIRHKLKAGQRVEAVIPPA” to “HMQPTVEGLMKALETMTFNERTALALHYGLTGRQPMTFMAIGRYLGISDGRAEALVNSAIRKLR”, the “soluble fraction (log2)” value falls from -0.276 to -1.8.

Going from “HMQQGVEQLPVTEVGGRLMHYYEVQPKETLYSLSHKLGVGQEYIEQHNPSVRGGLRAFMTLYFPAA” to “HMQQIAVDLSEFKPRLMRDMSSMLAGLYTHDLDLSSLDFSKVANFTFMFRGAIITGTLKMPKI”, the “soluble fraction (log2)” value rises from -0.00835 to 0.202.

Compared with “HMQQLDDDTVAYVADNGIAVKSKNGKELSVDTSGLSYDIIMDMFRNLPRNGDFFSSKYWSDNIQKAQAR”, “HMQQLIEFSVTKGHPWINKKIMDLNLPENQLILTIQREGHVVSAEGKTIILENDRITISTDDR” is lower in “soluble fraction (log2)” value: 0.447 for the first, -1.26 for the second.

Going from “HMQQPVVVQQNQTVRVVTGGPGFQVANEGRALNNGLAGQVVQVRLGNGQIISGIARAGGIVEIL” to “HMQQSQLDDIKSVVGGDEGYNKLREWTQANVPDETLKAFDKILDTQDPTMIKVAVEGFAAQMRQAE”, the “soluble fraction (log2)” value falls from -0.017 to -0.232.

First: HMQQTAEDWKNKGDSLTAQSEYVEAIAAYDEAIRLDPNYAPAWSNKGNALKNLGEYYKAIQAYDEAIRL
Second: HMQQYLDAYDKALAFGIAMNKLPSYENLTLDDKEDVDKLKEIYDGMSNYEKTFVAKDFTDKLDRYVKRIE
The “soluble fraction (log2)” value of the first is lower: 0.104 for the first, 0.347 for the second.

Going from “HMQRADYLILYYIKMQAEQHPDSKVYLADLAAVMGLKVTELSKAVEKLQDNGFVAWKTDREAGRTYVELS” to “HMQRIFIDNHDRILYYSNPAGYIAGKEAVVDTMFQTQELERFLQKQSLSIRWEDGVYDRLLLGQ”, the “soluble fraction (log2)” value rises from -3.13 to -0.0579.

First: HMQRRHESTPIPADFDYAAVRGLSAEVQQKLERVRPLSIGQAQRIPGMTPAAISLLLVHLERQRRSRV
Second: HMQRSVKNNDTVQVHYTGKLTNGQIFDSSIDKQPLEFQLGQGQIIPGFEKGLIDMTVSEKKTITIPEAEAY
The “soluble fraction (log2)” value of the first is lower: -1.24 for the first, 0.193 for the second.

“HMQSAEMTLDREGQPVQVRVELTGNEARITFLSDQEQTREALDAGMAQLRELLEQQGMVLAGVTV” and “HMQSDQLSDREREILRLIGSGRTNQEISQELQVSGSTVRTHLQHILDKLGLENRNQAVLYAIRIGLAAPP” are within 0.2 log units of each other in “soluble fraction (log2)” value: -0.00816 for the first, -0.163 for the second.

First: HMQSHGSRIWTDITGNFTREASFIELAEGKVTLQLTDGRRTIISFEILSKKDQEYVLDIGDS
Second: HMQSKDDLLDTFRVVKGNAALLNDQNKKLIRSLKVSSFGFTGITDQAAEVKKEMPDVLLEKASIEDILF
The “soluble fraction (log2)” value of the first is lower: -2.77 for the first, 0.0597 for the second.

Compared with “HMQSLAAKINGYIVAQRTSIAAIAKEIGYSRVTVSRYLAGKYDSDPTGIEAKLAAFLAGQTGEE”, “HMQSNIHELQKKLNEALQALSEDHRAVVTMFDIQGMPHAEISKILGVSEGTVRSRLYYAHQQLQGHL” is higher in “soluble fraction (log2)” value: -3.99 for the first, -1.11 for the second.

Compared with “HMQSRYALLAGMLRARITEGDWVPGSAIPAETVLAKEHGVALGTMRQAIALLVSQGLLERQHGRGTFVRS”, “HMQSSDQTDNIYENAVSIVLETGKASASHLQRVLGIDYNLAAHLIDKMEDGGLLSPPNYLGHRDVYGYT” is higher in “soluble fraction (log2)” value: -1.58 for the first, 0.317 for the second.

Compared with “HMQTFNADDIEPIIKEILQENPKAISDFLTGNENVVKFLLGQVMKNTKGKANPKVIEELLINQLRELNN”, “HMQTGYHVRITASTLNVRRDHSASSAVATQVRRGEVYTIVDEYNNGGTLWGKLKSGAGWIALKYTQS” is lower in “soluble fraction (log2)” value: -0.235 for the first, -3.39 for the second.

Going from “HMQTTITITNTVTGQKAQFPPPFNPMSLSKIGVDETFEKEVFVDGVDTFGYGLDGYLTFYELKDFLRSYQ” to “HMQVEYTRGELLQDLKEENVLYATITPSRETPTGEVDFVFKDKSIKTLYVTDVSEIEGLLMDYGIDPEVKK”, the “soluble fraction (log2)” value rises from -2.61 to -0.454.

“HMQVITEPFQEKYREFINMSTVTQRLEERETLSFTAQTVEGRWLTIIIVPQGYDKTGKLSTVLVANR” and “HMQVSDEGAIQLLVQKAIEENPQAIEAFRGGKTSALGPVVGWVMKQSKGAANPTMVKTLLEKAI” are within 0.2 log units of each other in “soluble fraction (log2)” value: 0.274 for the first, 0.154 for the second.

“HMQVVVEKSKEKVIISGNQYYIHIVKKGETAFSIAKAYGITVDELVKNNPSAATVLKEGQALRIPVVE” and “HMQYDESSQLGERFLNQALNALKADPDKVGDAQWEKLLKENSAKSRQEVLADIGLGKQLAIVIARELLS” are within 0.2 log units of each other in “soluble fraction (log2)” value: 0.0365 for the first, -0.148 for the second.

Compared with “HMQYPSSLDSRAKQSLYDNLERNEILALALDNVIQSNKLDGWRDGGIKERKLRLAINNLLKNDEHTDNIME”, “HMQYQIITENGKQYYLYTVQKSEGFYSIGKRFEITNDEIIKANPEAALGLKLGQVLKIPVYK” is lower in “soluble fraction (log2)” value: -0.0341 for the first, -2.4 for the second.

Going from “HMRAAKSEDTRTRLIEGGMALFGQKGYNATGIKDITDAAGVPKGSFYNYFASKEDFGAEIIHSY” to “HMRAEELEQFVERLKNEVMNNFPLKELSDNELREKIENLVEIRLANVYVSIEQRVAIAEQIYSSIR”, the “soluble fraction (log2)” value falls from 0.14 to -1.1.

Compared with “HMRAERVQITDPYIELHTGPGRGFPIFFVAPREQWISIELRHTDWFKVRAVGGQVGWVQRKQLEST”, “HMRAGHDFEALKHIESSLDKHLTDEGIKIKSEKRGAIVARWYQSHVEGREVTDDDVHTWIELFF” is lower in “soluble fraction (log2)” value: -1.56 for the first, -2.82 for the second.

Compared with “HMRAPIGFRISNRRKSLKISQVALARLVGISPSYLNLIENNKRDVGGALLQRVALHLNIDIDDL”, “HMRARTLSTTGGESLLTLAESLYPDDDRARARFIEATAAANPKLFADIAALTRVLPAGTTLRMPDLRA” is higher in “soluble fraction (log2)” value: -3.13 for the first, -0.0128 for the second.

“HMRARTQYWPFVEEKAAELKLPLHLVNVEPLFGEQKVVVHYTANGRIDFRELVHLLARRFHARIEMR” and “HMRATLTDETARVVQEPTSESISLTSLRKGEEFEIGKVIRKKKEVWVTVTTSSGVKGYISGDTHIF” are within 0.2 log units of each other in “soluble fraction (log2)” value: 0.0673 for the first, 0.00739 for the second.

Going from “HMRAVFEQLRIGQTLAGVVKAQEKGFSLVEIDGQTVAMRLPHPAAVGDTLRLRFAGHMPQAVFLLES” to “HMRAVPSIAFVTQKLIEQGVTMEQLVRSLLLDHEEYENDDSLERTADELFGKARMIISNYTPE”, the “soluble fraction (log2)” value rises from -1.99 to -1.08.

First: HMRDADRYAFMQENVEDFAKDMRRKHMTYDVLYEEYIRRTDNPYGYTQFKAIVQEYEKNHDYK
Second: HMRDGYEKPTEVGEGGRNPAMLSYIGHLRAKGHLSEEDIRSMAHGFNATTFDPPLDRDEVDGLVSRY
The “soluble fraction (log2)” value of the first is lower: -0.367 for the first, 0.106 for the second.

Going from “HMRDITAQSNASELYFEERDLEAFIEKLERLYPEIRYVNRLMIHSWGQQVVRFFDPDGNLIEVGTP” to “HMRDKTMLGNVIRTRRKKMNLTLEELSKQVGITSGGLSQIERGLVDPSLSVLRRISRALNLPMNVMFSE”, the “soluble fraction (log2)” value falls from -0.146 to -1.32.

“HMRDLAEAETILDALPTRLRKIVRWRHLEGLSQTEIAARLEISQMHVSRLYRRAISMIHASLADD” and “HMREEQELFRKLLEVNGIGPKVAAGMLAGGRPEDVVSAIRREDVAWLTKLPGIGRKTAQRIVLDLKDKLD” are within 0.2 log units of each other in “soluble fraction (log2)” value: -0.289 for the first, -0.331 for the second.

First: HMREPQMVTVNGDKVTHGHAYRSNVNPEDWYFTARINGQQLKPQKMEPADVAAYDKKEIGVPELMQR
Second: HMRESPYRRVAKFLLLIGTAEAAKIVSRLDQDQVEKVMLELSGIRSVPRDEATVILAEFESLLQQAR
The “soluble fraction (log2)” value of the first is higher: -0.275 for the first, -2.03 for the second.

Going from “HMRESRLFQILYQLLTKKKVTAANLAKQFEVSVRTIYRDIDALSSSGIPIYASQGKNGGIQLDEDF” to “HMRETELPVTIISAGRILAENLHLAGRDGGWLEAELKRRSLTAEQVLLLTVDAAGTVYLVRKEDL”, the “soluble fraction (log2)” value falls from -0.992 to -2.1.

First: HMREWPLWEIFIRGQHGLNHRHVGSLHAPDAAMAIGNARDVYTRRNEGVSIWAVRSADVVASVPSE
Second: HMRGADNAASILKEVGPHPEDGKPITVRSGRYGPYVKHGTTNATLPKDIKPEEITLDEAIALINERVAKG
The “soluble fraction (log2)” value of the first is lower: -2.08 for the first, 0.018 for the second.

Going from “HMRGGKGTVPDVTGMDAAAAVRILEKAGMNVAYIRGAGFVAEQTPAAGTKLKKGDKAYITLSWK” to “HMRGGWESLTDREREIAVLAAEGHSNRTIASTLFISDRTVQSHVSRALRALGVDSRTGIPSLVTTATR”, the “soluble fraction (log2)” value rises from -0.622 to 0.09.

First: HMRGWGTVKRRTPKSGRYRASYIGPDGKRYAADHTYAAKVDADAWLSSERALITAGVWTPPTDRVT
Second: HMRHLSVPSQDTQQVLQRLKVELALPEGARVRSDPSDPGRRLIPFTESVPQEMIDQYPVVSINI
The “soluble fraction (log2)” value of the first is lower: -0.688 for the first, -0.147 for the second.

“HMRIAGIDIPDNKRGEVALTYIFGIGRSSSKKILKSAGIDSDKQIGKWTDDESNLVRKLIRDEYTIEGDL” and “HMRIASANAIYDELLNKRDDAKLAELKQEDINLYALYILQNGSADERAALENTQGIDVVLKEIINLQNG” are within 0.2 log units of each other in “soluble fraction (log2)” value: -0.312 for the first, -0.305 for the second.

“HMRIGINDRIHEIVDVLRLKKSTPFEDLFSGLVTRFDLVITFLALLEMGKLRLLRLYQTDPLAPLHVEYTG” and “HMRILDFPALKTEFDQLTKDLMAKYPEDGADRVRAIIETVLGPGKKVGALQPHQAELLAEVNTSLKANL” are within 0.2 log units of each other in “soluble fraction (log2)” value: -0.0164 for the first, -0.0738 for the second.

Going from “HMRILGIDPGTRITGYGIIDIEGNRLRHVDNGIIKTRSSDALPLRLKVIYDGLTAVLKQYSPQAV” to “HMRIQTVDYNTFISMVEDGKVDAAEIQQQENRILFSDQDQKVYKTAMVPDDDLTQRLLDAGVSTNG”, the “soluble fraction (log2)” value rises from 0.23 to 0.726.

Compared with “HMRISKRQLILESAAAIINEKGADYLTLDAVAQRAGISKGGLFYHFKSKDELIKELVNYANN”, “HMRISLKAQVYEYLKQAIINGDLKVGEIYSEQYFADKLSISRTPVREAILQLQHENMVEVKANRGIIVK” is lower in “soluble fraction (log2)” value: -1.56 for the first, -2.73 for the second.

Going from “HMRITTKNYFKAISEVGFENLPEVLKKSHLVIEEKTNKGNDWGIYENDAEAKKVFDLAFDKLEEFIDRKED” to “HMRIVQTDYRNFLSQVESGAVRSVQIDETQIRYTALDSGGKEIVYNTGKVDDPGLVNRLYDAGVEFSQVIP”, the “soluble fraction (log2)” value falls from 0.461 to -0.132.

“HMRKATEVPFTAFKDSIENSHGKLSKAGLARHLADEYGMSQRNMERRINNLIDNKTIKYGNEGGLVWIG” and “HMRKDWTPGAFVEAFVNDTPATRSTILAKAVSAGLSRWAADNLLRTADNDGLMVRQGSGKRNEPFTYRRGP” are within 0.2 log units of each other in “soluble fraction (log2)” value: -0.104 for the first, -0.257 for the second.

For “HMRKEEFIRELVLELKQNVSEQVILEQKRFYEEYILTEVRGGKTEEEVIASLSEPRLLAKSIIDAAEAGGD”, the “soluble fraction (log2)” value was -1.3.
